Measured values: PMC5737872
Where two headings read alike, the source gives them in different places.

Assays:
Test in all cases: X-ray crystallography
Nrd1 290-468 wt [1] = biological target: T1, Nrd1 290-468 wt (Saccharomyces cerevisiae, UniProt P53617 290-468)
T1 sequence: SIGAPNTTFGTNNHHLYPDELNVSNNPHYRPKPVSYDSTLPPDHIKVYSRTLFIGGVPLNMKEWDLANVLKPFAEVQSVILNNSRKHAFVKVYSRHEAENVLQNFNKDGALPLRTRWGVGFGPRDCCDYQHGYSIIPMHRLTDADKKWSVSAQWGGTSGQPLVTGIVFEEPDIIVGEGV

Nrd1 290-468 wt [2] = biological target: T1, Nrd1 290-468 wt; remark: listed apart in the source
Nrd1 290-468 wt [3] = biological target: T1, Nrd1 290-468 wt; remark: listed apart in the source

B1: UUAGUAAUCC (ssRNA)
RNA: UUAGUAAUCC
- binding result (Nrd1 290-468 wt [1]): binds

B2: CGUAAA (ssRNA)
RNA: CGUAAA
- binding result (Nrd1 290-468 wt [2]): binds

B3: GUAA (ssRNA)
RNA: GUAA
- binding result (Nrd1 290-468 wt [3]): binds
